# T1: HDP1 homeodomain-like (Plasmodium falciparum, UniProt Q8IKH4 2990-3078)
# T1 sequence: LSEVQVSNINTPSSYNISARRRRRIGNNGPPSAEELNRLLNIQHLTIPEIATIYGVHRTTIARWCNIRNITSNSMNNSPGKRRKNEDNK
# Target: T1, HDP1 homeodomain-like
# Assay: gcPBM; about 25 ug protein; PBS, 1% milk, 0.2 mg/ml BSA, salmon testes DNA, 0.03% Triton X-100
# Conditions: tags: N-terminal GST (pGEX-4T-1), kept; chain copies: 2; label: surface-attached array probe
row,Binder,binding signal
1,GTGCAC_negctrl_site564 (dsDNA) DNA 1: ATAATGAACAATATTATATATAAAATATAATTTATA DNA 2: TATAAATTATATTTTATATATAATATTGTTCATTAT,"6.17 ln median PBM intensity, better of two orientations"
2,GTGCAC_negctrl_site143 (dsDNA) DNA 1: TTTTTTTTTTTTTTTTTTTTTTTTTTGTTCAGGCCT DNA 2: AGGCCTGAACAAAAAAAAAAAAAAAAAAAAAAAAAA,"5.99 ln median PBM intensity, better of two orientations"
3,GTGCAC_negctrl_site405 (dsDNA) DNA 1: TTTTTTATATTGATATTTATTAAATATGAAATGTTA DNA 2: TAACATTTCATATTTAATAAATATCAATATAAAAAA,"6.13 ln median PBM intensity, better of two orientations"
4,GTGCAC_negctrl_site87 (dsDNA) DNA 1: ATATATATAAAATATTATATTAAAAAAAATAAAATA DNA 2: TATTTTATTTTTTTTAATATAATATTTTATATATAT,"6.1 ln median PBM intensity, better of two orientations"
5,GTGCAC_negctrl_site347 (dsDNA) DNA 1: TTTTTTTTTATATAAAAAAAAATTTTTATTATTTTA DNA 2: TAAAATAATAAAAATTTTTTTTTATATAAAAAAAAA,"6.12 ln median PBM intensity, better of two orientations"
6,GTGCAC_negctrl_site318 (dsDNA) DNA 1: ATTTAAAAAAAAAAAAATAAATAACTTGAAAAACAA DNA 2: TTGTTTTTCAAGTTATTTATTTTTTTTTTTTTAAAT,"6.08 ln median PBM intensity, better of two orientations"
7,GTGCAC_negctrl_site639 (dsDNA) DNA 1: AAATAATTTATAAATAAATACATTGTTACTTTTTCT DNA 2: AGAAAAAGTAACAATGTATTTATTTATAAATTATTT,"6.13 ln median PBM intensity, better of two orientations"
8,GTGCAC_negctrl_site480 (dsDNA) DNA 1: TTATAATAAAAGGCTTTACAATTATTAAACAAATAA DNA 2: TTATTTGTTTAATAATTGTAAAGCCTTTTATTATAA,"6.03 ln median PBM intensity, better of two orientations"
9,GTGCAC_negctrl_site77 (dsDNA) DNA 1: TATTAAAATATGTCAGTTCTTAAAAAGTTGATGAGT DNA 2: ACTCATCAACTTTTTAAGAACTGACATATTTTAATA,"6.19 ln median PBM intensity, better of two orientations"
10,GTGCAC_negctrl_site542 (dsDNA) DNA 1: AAAATCCAGTTTTCAAAATTGAACAAAAAAAAAATA DNA 2: TATTTTTTTTTTGTTCAATTTTGAAAACTGGATTTT,"6.19 ln median PBM intensity, better of two orientations"
11,GTGCAC_negctrl_site144 (dsDNA) DNA 1: TTTTTTCTTTTTTTTTTTAATTATAAACATGATATT DNA 2: AATATCATGTTTATAATTAAAAAAAAAAAGAAAAAA,"6.07 ln median PBM intensity, better of two orientations"
12,GTGCAC_negctrl_site697 (dsDNA) DNA 1: AAAACTTTTAAAATTTTGTATTCATTCCTTCAACAA DNA 2: TTGTTGAAGGAATGAATACAAAATTTTAAAAGTTTT,"6.07 ln median PBM intensity, better of two orientations"
13,GTGCAC_negctrl_site162 (dsDNA) DNA 1: TTTCTTATAGATTTTAATCCTCTATCAAAAAAAGAA DNA 2: TTCTTTTTTTGATAGAGGATTAAAATCTATAAGAAA,"6.12 ln median PBM intensity, better of two orientations"
14,GTGCAC_negctrl_site152 (dsDNA) DNA 1: ATTATTTAATTTTATTAAAAAAAAACAAATTAACAG DNA 2: CTGTTAATTTGTTTTTTTTTAATAAAATTAAATAAT,"6.14 ln median PBM intensity, better of two orientations"
15,GTGCAC_negctrl_site607 (dsDNA) DNA 1: TTTTCATTTATGTATATATTTATTTTGATTTAATGT DNA 2: ACATTAAATCAAAATAAATATATACATAAATGAAAA,"6.11 ln median PBM intensity, better of two orientations"
16,GTGCAC_negctrl_site73 (dsDNA) DNA 1: AGCACACAAAAAAAAAAAAAAAAAAAAAAAGGAATG DNA 2: CATTCCTTTTTTTTTTTTTTTTTTTTTTTGTGTGCT,"6.21 ln median PBM intensity, better of two orientations"

row,Binder,binding signal
1,GTGCAC_negctrl_site725 (dsDNA) DNA 1: TTTTTAATCAGAAATATTTATTAAAGAATTTTATAG DNA 2: CTATAAAATTCTTTAATAAATATTTCTGATTAAAAA,"5.95 ln median PBM intensity, better of two orientations"
2,GTGCAC_negctrl_site74 (dsDNA) DNA 1: AATTGGAAGAAAAAAAAGGAAGGAAAGTTATTACAT DNA 2: ATGTAATAACTTTCCTTCCTTTTTTTTCTTCCAATT,"6.06 ln median PBM intensity, better of two orientations"
3,GTGCAC_negctrl_site289 (dsDNA) DNA 1: TTTTTAGAAAAGGTTATAAAAAATTAATTGAAAAAA DNA 2: TTTTTTCAATTAATTTTTTATAACCTTTTCTAAAAA,"6.15 ln median PBM intensity, better of two orientations"
4,GTGCAC_negctrl_site630 (dsDNA) DNA 1: TTCTTTTCTTTTTTCTTTTTTTTTTTCTTTTCTTTT DNA 2: AAAAGAAAAGAAAAAAAAAAAGAAAAAAGAAAAGAA,"6.08 ln median PBM intensity, better of two orientations"
5,GTGCAC_negctrl_site147 (dsDNA) DNA 1: AGTAAAAAAAAAAAAAAAAAAAAAAAAAAAAAAAAA DNA 2: TTTTTTTTTTTTTTTTTTTTTTTTTTTTTTTTTACT,"6.13 ln median PBM intensity, better of two orientations"
6,GTGCAC_negctrl_site145 (dsDNA) DNA 1: TTTGTAAAATAATATCTTTCATGTCCTTACTAATTA DNA 2: TAATTAGTAAGGACATGAAAGATATTATTTTACAAA,"5.95 ln median PBM intensity, better of two orientations"
7,GTGCAC_negctrl_site221 (dsDNA) DNA 1: ATATGTATAAGTATGTATATTTATTTATACTTATGT DNA 2: ACATAAGTATAAATAAATATACATACTTATACATAT,"6.16 ln median PBM intensity, better of two orientations"
8,GTGCAC_negctrl_site240 (dsDNA) DNA 1: TTTTTTTTTTTTTTTTTTTGATTCTTATAAAAATTT DNA 2: AAATTTTTATAAGAATCAAAAAAAAAAAAAAAAAAA,"6.02 ln median PBM intensity, better of two orientations"
9,GTGCAC_negctrl_site2 (dsDNA) DNA 1: ATATGAACAAAATAAATCTCTTCAAAAATAATGTTC DNA 2: GAACATTATTTTTGAAGAGATTTATTTTGTTCATAT,"5.98 ln median PBM intensity, better of two orientations"
10,GTGCAC_negctrl_site722 (dsDNA) DNA 1: ATAATACAAAAAAAAAAAAAAAATAAAATAATAAAA DNA 2: TTTTATTATTTTATTTTTTTTTTTTTTTTGTATTAT,"6.04 ln median PBM intensity, better of two orientations"
11,GTGCAC_negctrl_site474 (dsDNA) DNA 1: ATAAAATATTAATTTTAAATTAATCAATATATATAA DNA 2: TTATATATATTGATTAATTTAAAATTAATATTTTAT,"6.16 ln median PBM intensity, better of two orientations"
12,GTGCAC_negctrl_site52 (dsDNA) DNA 1: TTTTTACTATAATTAAAATTAACAAAAGAAAATGAT DNA 2: ATCATTTTCTTTTGTTAATTTTAATTATAGTAAAAA,"6.13 ln median PBM intensity, better of two orientations"
13,GTGCAC_negctrl_site302 (dsDNA) DNA 1: TAAAAAAATAAAAAAAAAAAATTATAAAATTATATA DNA 2: TATATAATTTTATAATTTTTTTTTTTTATTTTTTTA,"5.98 ln median PBM intensity, better of two orientations"
14,GTGCAC_negctrl_site459 (dsDNA) DNA 1: TTTTTTAGATTACATAAATATAAATATAAATATATA DNA 2: TATATATTTATATTTATATTTATGTAATCTAAAAAA,"6.12 ln median PBM intensity, better of two orientations"
15,GTGCAC_negctrl_site303 (dsDNA) DNA 1: TCTTTTTTTTTTTTTTTTTCTTCTTCTCAATATAAA DNA 2: TTTATATTGAGAAGAAGAAAAAAAAAAAAAAAAAGA,"6.15 ln median PBM intensity, better of two orientations"
16,GTGCAC_negctrl_site190 (dsDNA) DNA 1: TAGTTACTTCTTATATAAAATATGTATATAAAAATA DNA 2: TATTTTTATATACATATTTTATATAAGAAGTAACTA,"6.17 ln median PBM intensity, better of two orientations"
